Key:
[1] = Cyclohexanone monooxygenase (CHMO)/BspFDH2 coupled Baeyer-Villiger oxidation of cyclohexanone; assay type: biochemical; conditions: coupled with CHMO
Procedure: By coupling the enzymatic action of BspFDH2 with that of cyclohexanone monooxygenase (CHMO), oxygen C—C bond insertion, a Baeyer-Viliger (B-V) oxidation (see FIG. 4b), converted (>99% conversion, complete within 4 hours) cyclohexanone (3) to caprolactone (4) with NADPH regeneration.
NADP+ (20 mM, 1 mL) and BspFDH2 (17 mg/mL, 500 μL) were then added and the reaction shaken for 30 minutes at room temperature. After 30 minutes, pre-dialysed CHMO (2 mg/mL, 300 μL) was then added and the reaction shaken at 37° C. The reaction was monitored by GC-MS (Rt˜3.1 minutes). After 4 hr, the reaction mixture was extracted by DCM (3×1 mL) and the combined organic phase was dried and the solvent removed to afford oxepan-2-one (4 above, >99% conversion based on GC chromatogram).

[2] = pH profile determination of FDH-catalysed formate oxidation; assay type: biochemical; conditions: pHs as low 4 or as high as 10.5
Procedure: The pH profiles for BcenFDH1 (Bsp184FDH) and BspFDH2 (Bsp383FDH) catalyzed formate oxidation, shown in FIG. 13(a) and (b), were investigated by Uv/Vis spectrophotometry in a 96-well plate format. […] From this series, 170 μL was transferred into wells of the 96-well plate. 10 μL of the FDHs from a stock solution solution (64.1 μM for BcenFDH1 (Bsp184FDH) and 78.0 μM for BspFDH2 (Bsp383FDH)) were added into each well and equilibrated for 3 min at 30° C. The reaction was initiated by addition of 20 μL of NAD^+ solution from a freshly prepared stock (10 mM) using an 8-channel pipette. The plate was then immediately placed into the plate reader. The plate was shaken for 5 s to ensure thorough mixing, and then time-based measurements were recorded every 15 s for 10 min. The rate of formate oxidation was calculated using an extinction coefficient of 3.38 mM^−1 (for 200 μL).

[3] = Steady state kinetics for NAD^+ (FDH-catalysed formate oxidation); assay type: biochemical; conditions: cofactor NAD^+, 0.18M formate
Procedure: (§1) BcenFDH1 (Bsp184FDH) and BspFDH2 (Bsp383FDH) catalyzed oxidation of formate to CO2 was monitored by UV/Vis spectrophotometry in a 96-well plate format. A series of eight solutions of formate (0-200 mM) were prepared by successive dilutions of a stock solution of 0.5 M sodium formate in 0.1 M sodium phosphate buffer, pH 7.0. From this series, 170 μL was transferred into wells of the 96-well plate. 10 μL of the FDHs from a stock solution (64.1 μM for BcenFDH1 (Bsp184FDH) and 78.0 μM for BspFDH2 (Bsp383FDH)) were added into each well and equilibrated for 3 min at 30° C. The reaction was initiated by addition of 20 μL of NAD^+ or NADP^+ solution from a freshly prepared stock (10 mM) using an 8-channel pipette. The plate was then immediately placed into the plate reader. The plate was shaken for 5 s to ensure thorough mixing, and then time-based measurements were recorded every 15 s for 10 min. The rate of formate oxidation was calculated using an extinction coefficient of 3.38 mM^−1 (for 200 μL), which was determined using NADH standards. Km and Vmax values were obtained by non-linear regression to the Michaelis-Menten equation (Eq.1 below) using Origin v7 (Microcal Software Inc.).
(§2) Similar procedure were used for determination of Michaelis-Menten parameters for NAD^+ and NADP^+. A series of eight solutions of cofactor (0-75 mM) were prepared by successive dilutions of stock solutions. […] of sodium formate solutions (180 mM in well) were transferred into wells of the 96-well plate. 10 μL of the FDHs from a stock solution (64.1 μM for BcenFDH1 (Bsp184FDH) and 78.0 μM for BspFDH2 (Bsp383FDH)) were added into each well and equilibrated for 3 min at 30° C. The reaction was initiated by addition of 20 μL of NAD^+ or NADP^+ solutions using an 8-channel pipette. The plate was then immediately placed into the plate reader. The plate was shaken for 5 s to ensure thorough mixing, and then time-based measurements were recorded every 15 s for 10 min. The rate of formate oxidation was calculated using an extinction coefficient of 3.38 mM^−1 (for 200 μL), which was determined using NADH standards. Km and Vmax values were obtained by non-linear regression to the Michaelis-Menten equation as before.

[4] = Steady state kinetics for NADP^+ (FDH-catalysed formate oxidation); assay type: biochemical
Procedure: as §1, §2

[5] = Steady state kinetics for formate oxidation; assay type: biochemical
Procedure: as §1

[6] = Thermal stability study (remaining activity after incubation); assay type: physicochemical
Procedure: FIGS. 19 and 20—show the effect of temperature on the stability of the Bsp184FDH and Bsp383FDH enzymes. In FIG. […] In FIG. 20 (1) Bsp184FDH (2.1 mg/mL) and (2) Bsp383FDH (1.5 mg/mL) were incubated at 60° C. and 70° C. for 48 hours period in a similar way. Remaining activities were assayed under standard assay conditions and were expressed as the percentage of activities.
Thermal stability for purified wild-type BcenFDH1 (Bsp184FDH) and BspFDH2 (Bsp383FDH) catalyzed formate oxidation were investigated by Uv/V is spectrophotometry in a 96-well plate format. The results are illustrated in FIGS. 19 and 20. […] In addition, time based-thermal stability for purified wild-type BcenFDH1 (Bsp184FDH) and BspFDH2 (Bsp383FDH) catalyzed formate oxidation were also investigated at 60° C. and 70° C. over 48 hours in a similar way. The samples were spun down briefly to remove any precipitations before use. 10 μL of heat-treated BcenFDH1 and BspFDH2 were added into each well and equilibrated for 3 min at 30° C. after adding 170 μL of 200 mM sodium formate (dissolving in 50 mM sodium phosphate buffer, pH 7.0.) The reaction was initiated by addition of 20 μL of NADP^+ solution from a freshly prepared stock of 20 mM using an 8-channel pipette. The plate was then immediately placed into the plate reader. The plate was shaken for 5 seconds to ensure thorough mixing. Time-based measurements were recorded every 10 s for 10 min. The rate of formate oxidation was calculated using the absorption coefficient of 3.38 mM^−1 (for 200 μL).

B1: Bsp383FDH: wild type FDH from Burkholderia sp 383, Seq ID No: 1, C-terminal His-tagged (protein, listed as Burkholderia sp.)
chain: MATVLCVLYPDPVDGYPPRYVRDAIPVITHYADGQTAPTPAGPPGFQPGELVGCVSGALGLRGYMEAHGHTLIVTSDKDSPDSEFERRLPEADVVISQPFWPAYLTAERIARAPKLKLALTAGIGSDHVDLDAAARARITVAEVTGSNSISVAEHVVMTTLALVRNYLPSHAIAQQGGWNIADCVSRSYDVEGMHFGTVGAGRIGLAVLRRLKPFGLQLHYTQRHRLDASIEQELGLTYHADAASLASAVDIVNLQIPLYPSTEHLFDAAMIARMKRGAYLINTARAKLVDRDAVVNALTSGHLAGYGGDVWFPQPAPADHPWRTMPFNGMTPHISGTSLSAQARYAAGTLEILQCWFDGKPIRNEYLIVDGGTLAGTGAQSYRLT
modifications: C-terminal His tag
reaction complete within [1]: ≤ 4 h | conversion of cyclohexanone to caprolactone (oxepan-2-one) ([1]; NADPH regeneration, GC): > 99% | activity at extreme pH [2]: highly active | Km [3]: 7.6 ± 2.1 mM | kcat NAD^+ [3]: 49 ± 8 min⁻¹ | Km ([4]; cofactor NADP^+, 0.18M formate): 700 ± 100 µM | kcat NADP^+ ([4]; cofactor NADP^+, 0.18M formate): 166 ± 7 min⁻¹ | cofactor preference for NADP^+, times greater than those of known FDHs such as CmetFDH ([4]; relative to CmetFDH): 10^6 times | kcat ([5]; formate oxidation with NADP^+): 366.89 ± 26.84 min⁻¹ | Km ([5]; formate oxidation with NAD^+): 50.1 ± 2.69 mM | kcat ([5]; formate oxidation with NAD^+): 46.32 ± 0.95 min⁻¹ | temperature at which the enzymes denature [6]: 80 °C | activity lost upon incubation ([6]; 55° C. for 2 hours): no activity was lost | stability at room temperature ([6]; room temperature for weeks): stable

From patent US20100086958A1, “NOVEL ENZYME” (priority 2008, published 2010)
